According to patent US20260116946A1, “NOVEL CD200 FUSION PROTEINS” (DUCENTIS BIOTHERAPEUTICS LIMITED, priority 2022, published 2026):
Entries after “also recorded” stand apart in the source; their conditions may differ.

Key:
U937-CD200R cells = assay: Cell binding to U937-CD200R cells by flow cytometry; details: 1, 4 and 24 hours at 37° C., anti-human IgG secondary, compared to DS-155
Description: U937 cells were re-suspended with a density of 0.1 million cells per test with 50 μL FACS buffer (1×PBS+2% FBS).
Treatment with CD200-Fc proteins (50 μL) was performed starting from 10 μg/mL with 3-fold dilutions up to 10 concentrations with FACS buffer and incubated for 1-hour, 4-hours and 24-hours at 37° C. At the end of each time point, cells were collected and washed. 10 μg/mL of anti-human secondary antibody was added and incubated for 30 minutes at 4° C. Cells were washed post incubation and stained to check viability (1 μL dye per million cells per mL 1×PBS) for 20 minutes at 4° C. Cells were washed and fixed with Fixation buffer (100 μL per test) at 4° C. for 20 minutes. Post incubation, cells were washed and the pellet was re-suspended in FACS buffer (100 μL per test) for data acquisition on the flow cytometer.
For the 24-hour time point, treatment with CD200-Fc protein was performed with cell culture media. Wash step=addition of 200 μL FACS buffer and centrifugation at 1400 RPM.
The binding of ARQ-234 to U937-CD200R cells was compared to a wild type control CD200-Fc (DS-155) at 1, 4 and 24 hrs at human physiological temperature (37° C.) and binding was detected using flow cytometry with an anti-human IgG antibody.

human CD200R = target: T1, human CD200R (Homo sapiens, UniProt Q8TD46); assay: BIAcore SPR binding of CD200-Fc to human CD200R
T1 construct: His; purchased Creative Biomart CD200R1-320H
T1 sequence (Q8TD46 25-348): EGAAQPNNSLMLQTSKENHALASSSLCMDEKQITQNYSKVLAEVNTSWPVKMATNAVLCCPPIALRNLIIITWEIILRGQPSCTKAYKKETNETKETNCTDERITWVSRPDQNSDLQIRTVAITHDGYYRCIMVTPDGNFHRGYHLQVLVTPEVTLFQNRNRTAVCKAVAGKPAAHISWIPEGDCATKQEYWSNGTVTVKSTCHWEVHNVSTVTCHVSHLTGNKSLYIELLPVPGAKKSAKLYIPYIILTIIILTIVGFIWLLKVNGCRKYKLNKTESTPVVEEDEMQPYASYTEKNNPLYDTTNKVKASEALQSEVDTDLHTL
Excerpt: BIAcore instrumentation uses an optical method, Surface Plasmon Resonance (SPR), to measure the binding characteristics of two interacting molecules; in this case wild-type CD200-Fc or CD200-Fc mutants binding to the CD200 receptor (CD200R). The technique measures changes in the refractive index of one of the two interacting molecules captured on a chip (sensor) when the second molecule is flowed in solution over the captured partner. In these experiments CD200-Fc was immobilized on the chip (sensor) surface and CD200R was injected in an aqueous buffer over the captured CD200-Fc under continuous flow conditions. Changes in the CD200-Fc refractive index following CD200R binding were measured in real time and the result plotted as response units (RUs) versus time to generate sensorgrams.
The experiments were performed on a GE Healthcare BIAcore T200. Human, cynomolgus and mouse CD200R proteins were purchased from Creative Biomart (CD200R1-320H, CD200R1-3483C, CD200R1-3280M). All measurements were performed in duplicate.
For human CD200 constructs: anti-human Fc (GE Healthcare) was covalently immobilized on a BIAcore CM5 sensor chip (Cytiva, BR100530) by amine coupling using a Cytiva kit (BR100839) following the manufacturer's instructions, targeting immobilization of 8,000-11,000 RU. […]
For mouse CD200 constructs, muCD200R-Fc (Creative Biomart CD200R1-458M) diluted to 1 μg/mL in running buffer was flowed over the immobilized Anti-Human IgG Fc, with CD200 monomers serially diluted and flowed over captured CD200R. […] Data analysis: experimental sensorgrams were analyzed in BIAevaluation software (GE Healthcare). […] Closeness of fit was determined by algorithms provided by the manufacturer in the BIAevaluation software, and data accepted if the Chi^2 value was less than 10% of Rmax, and the U value was less than or equal to 15.

[1] = human CD200R, 25° C., mean of two runs

ARQ-234: mutated human CD200-Fc fusion protein: CD200 K130Y, I131Y directly fused to IgG4 Fc S228P, M428L, N434S
binding to U937-CD200R cells (U937-CD200R cells): superior binding of ARQ-234 to CD200R-expressing cells compared to DS-155; also recorded: more potent target engagement compared to DS-155 | ka (human CD200R; [1]): 221600 M⁻¹ s⁻¹ | kd (human CD200R; [1]): 0.0004675 s⁻¹ | fold greater affinity for human CD200 receptor than wild-type CD200-Fc (DS-155) (human CD200R; versus DS-155): approx. 84 fold
